Source: paper PMC10786891, “Massively parallel profiling of RNA-targeting CRISPR-Cas13d”

T1: EsCas13d, nuclease-dead (Eubacterium siraeum, UniProt B0MS50, R295A;H300A;R849A;H854A)
T1 sequence: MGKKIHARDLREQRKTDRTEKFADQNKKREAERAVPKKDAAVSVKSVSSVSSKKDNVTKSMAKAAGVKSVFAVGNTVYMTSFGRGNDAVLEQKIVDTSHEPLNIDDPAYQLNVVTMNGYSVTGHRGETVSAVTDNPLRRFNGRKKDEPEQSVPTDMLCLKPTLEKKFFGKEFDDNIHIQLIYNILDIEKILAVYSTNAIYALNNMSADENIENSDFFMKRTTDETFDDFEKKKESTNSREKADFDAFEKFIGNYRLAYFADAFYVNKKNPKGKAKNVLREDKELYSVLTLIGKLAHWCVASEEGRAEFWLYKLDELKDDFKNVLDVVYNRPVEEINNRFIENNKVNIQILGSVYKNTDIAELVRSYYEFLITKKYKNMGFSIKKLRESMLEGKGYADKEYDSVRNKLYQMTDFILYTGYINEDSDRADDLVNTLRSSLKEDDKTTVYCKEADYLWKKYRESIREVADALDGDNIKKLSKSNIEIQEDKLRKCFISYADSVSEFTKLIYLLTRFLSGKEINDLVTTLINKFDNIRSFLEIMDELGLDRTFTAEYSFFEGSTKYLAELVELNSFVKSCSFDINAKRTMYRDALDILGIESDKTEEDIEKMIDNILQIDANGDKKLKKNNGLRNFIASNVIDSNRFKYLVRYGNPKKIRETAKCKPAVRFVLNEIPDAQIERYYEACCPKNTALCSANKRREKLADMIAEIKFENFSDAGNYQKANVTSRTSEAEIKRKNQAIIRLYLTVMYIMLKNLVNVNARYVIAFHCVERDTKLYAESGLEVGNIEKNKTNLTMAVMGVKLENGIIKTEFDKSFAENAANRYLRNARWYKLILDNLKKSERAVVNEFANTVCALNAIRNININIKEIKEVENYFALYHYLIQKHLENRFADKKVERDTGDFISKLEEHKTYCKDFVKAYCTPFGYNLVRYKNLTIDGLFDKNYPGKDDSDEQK


Biological target: T1, EsCas13d, nuclease-dead
Assay: crRNA (strand 1, pre-loaded); Mg2+; 40 mM Tris-HCl pH 7.5, 150 mM NaCl, 6 mM MgCl2, 1 mM DTT, 0.1% Tween-20, 0.2 mg/ml BSA; 25 C; 10 min per concentration, then washed
Conditions: tags: His6-TwinStrep-SUMO cleaved; N-terminal SNAP kept (SNAP-Surface 488); label: 3' end held by stalled T7 RNA polymerase

Row | Binder | Kd
1 | target 1 U10A,G12C (mixed) RNA 1: CACCCGUGCAAAAAUGCAGGGGUCUAAAACUGAGCGGAUAACCUCUCUAUGG RNA 2: GGGAAUGGAUCCACAUCUACGAAUUCGUACCAUAGAGAGCUAAUCCGCUCACCGAGAUCGGAAGAGCACACGU | 8.6 ± 1 nM
2 | target 1 insG 3' of 2,insG 3' of 2 (mixed) RNA 1: CACCCGUGCAAAAAUGCAGGGGUCUAAAACUGAGCGGAUAACCUCUCUAUGG RNA 2: GGGAAUGGAUCCACAUCUACGAAUUCGUACCAUAGAGAGGUUAUCCGCUCGGACCGAGAUCGGAAGAGCACACGU | 7.5 ± 0.5 nM
3 | target 1 insG 3' of 1,insU 3' of 1 (mixed) RNA 1: CACCCGUGCAAAAAUGCAGGGGUCUAAAACUGAGCGGAUAACCUCUCUAUGG RNA 2: GGGAAUGGAUCCACAUCUACGAAUUCGUACCAUAGAGAGGUUAUCCGCUCAGUCCGAGAUCGGAAGAGCACACGU | 10.5 ± 1.2 nM
4 | target 2 MT 5'PFS UUA 3'PFS CUC (mixed) RNA 1: CACCCGUGCAAAAUUGCAGGGGUCUAAAACCUUCUCCAAAUUGUUUCAUCCU RNA 2: GGGAAUGGAUCCACAUCUACGAAUUCUUAAGGAUGAAACAAUUUGGAGAAGCUCAGAUCGGAAGAGCACACGU | 55 ± 16 nM
5 | target 2 MT 5'PFS GCU 3'PFS UCG (mixed) RNA 1: CACCCGUGCAAAAUUGCAGGGGUCUAAAACCUUCUCCAAAUUGUUUCAUCCU RNA 2: GGGAAUGGAUCCACAUCUACGAAUUCGCUAGGAUGAAACAAUUUGGAGAAGUCGAGAUCGGAAGAGCACACGU | 18 ± 4 nM
6 | target 2 MT 5'PFS AUA 3'PFS CGC (mixed) RNA 1: CACCCGUGCAAAAUUGCAGGGGUCUAAAACCUUCUCCAAAUUGUUUCAUCCU RNA 2: GGGAAUGGAUCCACAUCUACGAAUUCAUAAGGAUGAAACAAUUUGGAGAAGCGCAGAUCGGAAGAGCACACGU | 7.8 ± 0.8 nM
7 | target 2 MT 5'PFS AUU 3'PFS UUA (mixed) RNA 1: CACCCGUGCAAAAUUGCAGGGGUCUAAAACCUUCUCCAAAUUGUUUCAUCCU RNA 2: GGGAAUGGAUCCACAUCUACGAAUUCAUUAGGAUGAAACAAUUUGGAGAAGUUAAGAUCGGAAGAGCACACGU | 13.5 ± 2.1 nM
8 | target 2 MT 5'PFS GCU 3'PFS UCC (mixed) RNA 1: CACCCGUGCAAAAUUGCAGGGGUCUAAAACCUUCUCCAAAUUGUUUCAUCCU RNA 2: GGGAAUGGAUCCACAUCUACGAAUUCGCUAGGAUGAAACAAUUUGGAGAAGUCCAGAUCGGAAGAGCACACGU | 40 ± 8 nM
9 | target 2 MT 5'PFS AGU 3'PFS CUC (mixed) RNA 1: CACCCGUGCAAAAUUGCAGGGGUCUAAAACCUUCUCCAAAUUGUUUCAUCCU RNA 2: GGGAAUGGAUCCACAUCUACGAAUUCAGUAGGAUGAAACAAUUUGGAGAAGCUCAGAUCGGAAGAGCACACGU | ~50 nM
10 | target 2 MT 5'PFS GGC 3'PFS UGU (mixed) RNA 1: CACCCGUGCAAAAUUGCAGGGGUCUAAAACCUUCUCCAAAUUGUUUCAUCCU RNA 2: GGGAAUGGAUCCACAUCUACGAAUUCGGCAGGAUGAAACAAUUUGGAGAAGUGUAGAUCGGAAGAGCACACGU | 27.8 ± 3.5 nM
11 | target 2 MT 5'PFS GUC 3'PFS UUU (mixed) RNA 1: CACCCGUGCAAAAUUGCAGGGGUCUAAAACCUUCUCCAAAUUGUUUCAUCCU RNA 2: GGGAAUGGAUCCACAUCUACGAAUUCGUCAGGAUGAAACAAUUUGGAGAAGUUUAGAUCGGAAGAGCACACGU | 58 ± 15 nM
12 | target 2 MT 5'PFS GUC 3'PFS UUA (mixed) RNA 1: CACCCGUGCAAAAUUGCAGGGGUCUAAAACCUUCUCCAAAUUGUUUCAUCCU RNA 2: GGGAAUGGAUCCACAUCUACGAAUUCGUCAGGAUGAAACAAUUUGGAGAAGUUAAGAUCGGAAGAGCACACGU | 31 ± 6 nM
13 | target 2 MT 5'PFS AGU 3'PFS CUU (mixed) RNA 1: CACCCGUGCAAAAUUGCAGGGGUCUAAAACCUUCUCCAAAUUGUUUCAUCCU RNA 2: GGGAAUGGAUCCACAUCUACGAAUUCAGUAGGAUGAAACAAUUUGGAGAAGCUUAGAUCGGAAGAGCACACGU | 24 ± 8 nM
14 | target 2 MT 5'PFS AUU 3'PFS UUC (mixed) RNA 1: CACCCGUGCAAAAUUGCAGGGGUCUAAAACCUUCUCCAAAUUGUUUCAUCCU RNA 2: GGGAAUGGAUCCACAUCUACGAAUUCAUUAGGAUGAAACAAUUUGGAGAAGUUCAGAUCGGAAGAGCACACGU | 23 ± 5 nM
15 | target 2 MT 5'PFS GGC 3'PFS UGA (mixed) RNA 1: CACCCGUGCAAAAUUGCAGGGGUCUAAAACCUUCUCCAAAUUGUUUCAUCCU RNA 2: GGGAAUGGAUCCACAUCUACGAAUUCGGCAGGAUGAAACAAUUUGGAGAAGUGAAGAUCGGAAGAGCACACGU | 18 ± 4 nM
16 | target 2 MT 5'PFS AGU 3'PFS CUG (mixed) RNA 1: CACCCGUGCAAAAUUGCAGGGGUCUAAAACCUUCUCCAAAUUGUUUCAUCCU RNA 2: GGGAAUGGAUCCACAUCUACGAAUUCAGUAGGAUGAAACAAUUUGGAGAAGCUGAGAUCGGAAGAGCACACGU | 11.4 ± 1.5 nM
17 | target 2 MT 5'PFS UUA 3'PFS CUG (mixed) RNA 1: CACCCGUGCAAAAUUGCAGGGGUCUAAAACCUUCUCCAAAUUGUUUCAUCCU RNA 2: GGGAAUGGAUCCACAUCUACGAAUUCUUAAGGAUGAAACAAUUUGGAGAAGCUGAGAUCGGAAGAGCACACGU | 24 ± 2.7 nM
18 | target 2 MT 5'PFS GUC 3'PFS UUC (mixed) RNA 1: CACCCGUGCAAAAUUGCAGGGGUCUAAAACCUUCUCCAAAUUGUUUCAUCCU RNA 2: GGGAAUGGAUCCACAUCUACGAAUUCGUCAGGAUGAAACAAUUUGGAGAAGUUCAGAUCGGAAGAGCACACGU | ~47 nM
19 | target 2 MT 5'PFS UUA 3'PFS UAC (mixed) RNA 1: CACCCGUGCAAAAUUGCAGGGGUCUAAAACCUUCUCCAAAUUGUUUCAUCCU RNA 2: GGGAAUGGAUCCACAUCUACGAAUUCUUAAGGAUGAAACAAUUUGGAGAAGUACAGAUCGGAAGAGCACACGU | 37 ± 7 nM
20 | target 2 MT 5'PFS CUC 3'PFS UCG (mixed) RNA 1: CACCCGUGCAAAAUUGCAGGGGUCUAAAACCUUCUCCAAAUUGUUUCAUCCU RNA 2: GGGAAUGGAUCCACAUCUACGAAUUCCUCAGGAUGAAACAAUUUGGAGAAGUCGAGAUCGGAAGAGCACACGU | 4 ± 0.8 nM
21 | target 2 MT 5'PFS CCA 3'PFS CCU (mixed) RNA 1: CACCCGUGCAAAAUUGCAGGGGUCUAAAACCUUCUCCAAAUUGUUUCAUCCU RNA 2: GGGAAUGGAUCCACAUCUACGAAUUCCCAAGGAUGAAACAAUUUGGAGAAGCCUAGAUCGGAAGAGCACACGU | 4.9 ± 0.6 nM
22 | target 2 MT 5'PFS UUA 3'PFS UAU (mixed) RNA 1: CACCCGUGCAAAAUUGCAGGGGUCUAAAACCUUCUCCAAAUUGUUUCAUCCU RNA 2: GGGAAUGGAUCCACAUCUACGAAUUCUUAAGGAUGAAACAAUUUGGAGAAGUAUAGAUCGGAAGAGCACACGU | 15.9 ± 2.4 nM
23 | target 2 MT 5'PFS UUA 3'PFS UAG (mixed) RNA 1: CACCCGUGCAAAAUUGCAGGGGUCUAAAACCUUCUCCAAAUUGUUUCAUCCU RNA 2: GGGAAUGGAUCCACAUCUACGAAUUCUUAAGGAUGAAACAAUUUGGAGAAGUAGAGAUCGGAAGAGCACACGU | 22 ± 5 nM
24 | target 2 MT 5'PFS CAU 3'PFS UGA (mixed) RNA 1: CACCCGUGCAAAAUUGCAGGGGUCUAAAACCUUCUCCAAAUUGUUUCAUCCU RNA 2: GGGAAUGGAUCCACAUCUACGAAUUCCAUAGGAUGAAACAAUUUGGAGAAGUGAAGAUCGGAAGAGCACACGU | 4.5 ± 1.4 nM
25 | target 2 MT 5'PFS GCU 3'PFS UCU (mixed) RNA 1: CACCCGUGCAAAAUUGCAGGGGUCUAAAACCUUCUCCAAAUUGUUUCAUCCU RNA 2: GGGAAUGGAUCCACAUCUACGAAUUCGCUAGGAUGAAACAAUUUGGAGAAGUCUAGAUCGGAAGAGCACACGU | 34 ± 11 nM
26 | target 2 MT 5'PFS AUC 3'PFS CGA (mixed) RNA 1: CACCCGUGCAAAAUUGCAGGGGUCUAAAACCUUCUCCAAAUUGUUUCAUCCU RNA 2: GGGAAUGGAUCCACAUCUACGAAUUCAUCAGGAUGAAACAAUUUGGAGAAGCGAAGAUCGGAAGAGCACACGU | 61 ± 20 nM
27 | target 2 MT 5'PFS AAG 3'PFS AAC (mixed) RNA 1: CACCCGUGCAAAAUUGCAGGGGUCUAAAACCUUCUCCAAAUUGUUUCAUCCU RNA 2: GGGAAUGGAUCCACAUCUACGAAUUCAAGAGGAUGAAACAAUUUGGAGAAGAACAGAUCGGAAGAGCACACGU | 3.1 ± 1 nM
28 | target 2 MT 5'PFS CCC 3'PFS UCC (mixed) RNA 1: CACCCGUGCAAAAUUGCAGGGGUCUAAAACCUUCUCCAAAUUGUUUCAUCCU RNA 2: GGGAAUGGAUCCACAUCUACGAAUUCCCCAGGAUGAAACAAUUUGGAGAAGUCCAGAUCGGAAGAGCACACGU | 2.1 ± 0.5 nM
